Source: PMC4482762

Molecular target: endogenous 14-3-3ε (UniProt P62258)
Assay: GFP-Trap of YFP-R6, Western blot
Details: reference: YFP-R6 wild type; sites S74

binding against the reference: lost
Substance: PPP1R3D (R6) (from UniProt O95685) YFP-R6 S74A
